Reference: patent publication US20240343761A1, “APELINERGIC MACROCYCLES AND USES THEREOF” (priority 2021, published 2024)
Numbered stars: 1 amine (or outer) side, 2 acyl side, 3 side chain; on linkers, the order of the positions; unused ones are H or OH. Bridge positions count the residues as written; N and C are the ends. Square brackets hold non-standard residues; d marks the D form. Ends that are not written are not given here. * marks the point of attachment. Hyp(OBn) = O-benzyl-4-hydroxyproline, O=C([C@@H]1C[C@@H](OCc2ccccc2)CN1[*:1])[*:2]; Alnb = Nγ-allyl-Nγ-nosyl-α,γ-diamino-butanoic acid; Oic = O=C(O)[C@@H]1C[C@@H]2CCCC[C@@H]2N1; Phe(4-Br) = N[C@@H](Cc1ccc(Br)cc1)C(=O)O; Benzoyl(4-Br) = O=C(c1ccc(Br)cc1)*; hArg = N=C(N)NCCCC[C@H](N)C(=O)O; AllylGly = C=CC[C@H](N)C(=O)O; pGlu = O=C1CC[C@@H](C(=O)O)N1; Nle = CCCC[C@H](N)C(=O)O

T1: YFP-tagged human APJ receptor (human, UniProt P35414 1-380)
T1 construct: whole, on cells; also called hAPJ; APJ WT; not shown: YFP tag
T1 sequence (looked up): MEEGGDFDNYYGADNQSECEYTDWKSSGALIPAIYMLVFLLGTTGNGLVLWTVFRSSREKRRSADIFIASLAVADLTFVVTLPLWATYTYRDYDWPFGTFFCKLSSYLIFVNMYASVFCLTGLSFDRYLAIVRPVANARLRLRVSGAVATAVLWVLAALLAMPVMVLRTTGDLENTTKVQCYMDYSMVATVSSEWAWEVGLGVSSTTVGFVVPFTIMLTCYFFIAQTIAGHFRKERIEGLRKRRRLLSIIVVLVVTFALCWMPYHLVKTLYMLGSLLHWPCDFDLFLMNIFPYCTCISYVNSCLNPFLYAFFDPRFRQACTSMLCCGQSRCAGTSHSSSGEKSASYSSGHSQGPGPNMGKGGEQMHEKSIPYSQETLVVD

T2: human APJ (transfected HEK293 cells, Gαi1 BRET assay) (human, UniProt P35414 1-380)
T2 sequence (looked up): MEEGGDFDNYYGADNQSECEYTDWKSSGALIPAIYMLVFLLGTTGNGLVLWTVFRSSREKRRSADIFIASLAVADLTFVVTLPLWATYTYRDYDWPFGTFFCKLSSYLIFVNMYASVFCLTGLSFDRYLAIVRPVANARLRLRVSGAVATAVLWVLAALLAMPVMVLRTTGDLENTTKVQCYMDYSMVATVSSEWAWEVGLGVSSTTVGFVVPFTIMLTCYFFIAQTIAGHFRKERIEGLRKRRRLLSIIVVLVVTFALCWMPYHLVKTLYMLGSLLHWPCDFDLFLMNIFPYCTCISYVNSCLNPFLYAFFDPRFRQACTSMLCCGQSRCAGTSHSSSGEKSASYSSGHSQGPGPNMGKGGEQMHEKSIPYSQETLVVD


Legend:
[1] = molecular target: T1, YFP-tagged human APJ receptor; test: competitive radioligand binding, HEK293-hAPJ membranes
[2] = molecular target: T2, human APJ (transfected HEK293 cells, …); test: cell-based or functional assay
[3] = molecular target: T2, human APJ (transfected HEK293 cells, …); test: cell-based or functional assay; remark: listed apart in the source

Binder | Ki [1] [nM] | EC50 Gail [2] [nM] | Gαi1 Emax (%) [3] [%]
{Benzoyl(4-Br)}-RRSEPLHKRVP[Phe(4-Br)]P (lactam 4-8) [Compound 94 (KT04-16)] | 0.29 |  | 
KRRE[Nle]PLHSRVPFP (lactam 1-4) [Compound 72 (AM03-37)] | 0.87 | 1.7 | 
KRRE[Nle]PLHSRV[Oic]FP (lactam 1-4) [Compound 73 (AM03-66)] | 11 | 14 | 
[Nle]PEHSRKPFP (lactam 3-7) [Compound 84 (ABB01-109)] | 274 |  | 
H-[AllylGly]RLS[AllylGly]KGP[dY] (staple 1-5) [Compound 45 (KT04-42b)] |  |  | 100
H-[AllylGly]RLS[Alnb]KGP[Nle]PF (staple 1-5) [Compound 28 (KT01-135)] |  |  | 106
[pGlu]R[hArg]SEPLHKRVPFP (lactam 5-9) [Compound 91 (KT03-17)] | 9.4 | 4.3 | 
[pGlu]RRSEPLHKRVPFP (lactam 5-9) [Compound 77 (ABB01-106)] | 6.2 | 6.1 | 
[pGlu]RRK[Nle]PEHSRVPFP (lactam 4-7) [Compound 74 (AM03-38)] | 261 |  | 
Guanidine-[AllylGly]RLS[AllylGly]KGP[Nle]PF (staple 1-5) [Compound 23 (KT01-121)] |  |  | 103
KRRE[Nle]CLHCRVPFP (lactam 1-4; disulfide 6-9) [Compound 79 (AM03-68)] | 0.61 | 4 | 
[pGlu][hArg]RSEPLHKRVPFP (lactam 5-9) [Compound 90 (KT03-16)] |  | 15 | 
[pGlu]RRSEPLHKRVP[Phe(4-Br)]P (lactam 5-9) [Compound 92 (KT03-15)] |  | 16 | 
[pGlu]RRSEPLHKRVPF[Hyp(OBn)] (lactam 5-9) [Compound 93 (KT03-19)] |  | 47 | 
